Fold abundance in the dark versus light (co-precipitated protein) data for one substance are collected here from US20240401071A1.

The experiment deals with Rubisco activase (Arabidopsis thaliana) (UniProt P10896). Briefly: GFP-bead immunoprecipitation of PRL-1-eGFP from Arabidopsis leaves, mass spectrometry (IPMS); interaction direct or indirect.
Chain of UniProt P10896 (P10896 59-474 limits assumed): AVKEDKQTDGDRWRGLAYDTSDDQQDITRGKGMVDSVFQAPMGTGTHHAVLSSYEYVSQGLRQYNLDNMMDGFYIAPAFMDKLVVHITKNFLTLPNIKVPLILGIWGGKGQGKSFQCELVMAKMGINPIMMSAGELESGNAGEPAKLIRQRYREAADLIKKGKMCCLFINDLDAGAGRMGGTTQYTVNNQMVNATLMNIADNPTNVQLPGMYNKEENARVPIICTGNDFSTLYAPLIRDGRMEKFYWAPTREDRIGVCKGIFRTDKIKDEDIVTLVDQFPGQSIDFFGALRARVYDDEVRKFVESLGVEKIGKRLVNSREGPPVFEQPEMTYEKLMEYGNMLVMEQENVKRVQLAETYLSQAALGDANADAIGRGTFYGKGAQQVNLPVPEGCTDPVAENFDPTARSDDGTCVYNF

Turning to “PRL-1-eGFP (C-terminal GFP fusion with PRL-1, ribulose bisphosphate carboxylase/oxygenase large subunit-related, Potri.012G062600)”, the fold abundance in the dark versus light (co-precipitated protein) turned out to be 4 fold.
